Test results published in US20150098945A1 (Daiichi Sankyo, published 2015).
Positions count from the first letter of the chain named. Like-named read-outs stand apart in the source and are kept apart here. Blank lines part the entries; values can stand above or below the binder they belong to.

Tests used:
[1] = biological target: T1, N-terminal FLAG-tagged cynomolgus monkey ROBO4, cynoROBO4-1 (pCI-FLAG-cynoROBO4-1) (cynomolgus monkey, UniProt Q8WZ75 28-1007 (human entry)); assay: flow cytometry (FC500), HEK293 cells transfected with pCI-FLAG-cynoROBO4-1, antibody at 10 µg/mL, FITC goat anti-human IgG Fc; control histogram IgG (human IgG)
T1 chain: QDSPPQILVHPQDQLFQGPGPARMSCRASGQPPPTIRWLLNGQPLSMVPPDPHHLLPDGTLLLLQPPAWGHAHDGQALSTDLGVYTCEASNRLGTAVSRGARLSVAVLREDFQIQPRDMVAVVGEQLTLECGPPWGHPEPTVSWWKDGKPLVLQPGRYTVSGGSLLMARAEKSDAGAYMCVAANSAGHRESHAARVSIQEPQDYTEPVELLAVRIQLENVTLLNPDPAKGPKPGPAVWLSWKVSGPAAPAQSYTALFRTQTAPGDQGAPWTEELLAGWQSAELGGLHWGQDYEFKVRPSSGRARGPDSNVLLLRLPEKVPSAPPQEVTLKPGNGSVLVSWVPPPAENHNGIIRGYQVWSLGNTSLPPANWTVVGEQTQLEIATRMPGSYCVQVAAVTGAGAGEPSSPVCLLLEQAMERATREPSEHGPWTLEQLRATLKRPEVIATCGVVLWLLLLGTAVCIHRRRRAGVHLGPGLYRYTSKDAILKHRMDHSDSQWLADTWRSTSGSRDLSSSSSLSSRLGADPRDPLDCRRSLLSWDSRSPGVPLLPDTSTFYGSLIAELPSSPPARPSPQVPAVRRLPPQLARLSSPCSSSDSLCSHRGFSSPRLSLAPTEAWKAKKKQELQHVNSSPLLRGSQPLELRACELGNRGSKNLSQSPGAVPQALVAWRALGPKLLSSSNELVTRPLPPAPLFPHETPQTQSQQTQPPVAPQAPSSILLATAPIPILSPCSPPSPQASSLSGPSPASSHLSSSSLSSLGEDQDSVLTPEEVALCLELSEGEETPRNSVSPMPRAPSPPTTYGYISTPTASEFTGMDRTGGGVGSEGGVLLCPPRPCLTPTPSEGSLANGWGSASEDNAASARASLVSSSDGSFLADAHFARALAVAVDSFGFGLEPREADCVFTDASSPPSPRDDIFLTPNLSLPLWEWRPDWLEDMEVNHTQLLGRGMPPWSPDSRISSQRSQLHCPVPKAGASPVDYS

[2] = biological target: T1, N-terminal FLAG-tagged cynomolgus …; assay: as above

binding result [1]: binds
B1: humanized MAb1 antibody H-1143 (antibody, human IgG2, kappa, V domains shown)
VH: EVQLVESGGGLVQPGGSLRLSCAASGFTFSTYAMSWVRQAPGKGLEWVATISQGGTYTYYPDSVKGRFTISRDNAKNTLYLQMNSLRAEDTAVYYCARLIYYDYLDYWGQGTLVTVSS
VL: DIVMTQSPLSLPVTLGEPASISCRSSQSLENENKNLYLNWYLQKPGQSPQLLIYRVSNRFSGVPDRFSGSGSGTDFTLKISRVEAEDVGVYYCLQVTHVPWTFGPGTKVDIKR
notes: Human IgG2 / kappa constant regions; also called hMAb1-H2-type heavy chain + hMAb1-L2-type light chain

binding result [2]: binds
B2: humanized MAb1 antibody H-2143 (antibody, human IgG2, kappa, V domains shown)
VH: B1 VH with G44R
VL: B1 VL
notes: Human IgG2 / kappa constant regions; also called hMAb1-H4-type heavy chain + hMAb1-L2-type light chain
